Measurements reported in the RNAGym collection of RNA variant scans (doi:10.7554/elife.90254).

B1: OR4K15 (parent)
chain: GUUAACGGUCAUAGGCCAUGGAAACUAGGAGCACCAUUUCGCUGCCAGUGAAGAAAUGAACAAAGAAAAUCUGGGCCAGGCAGGCAUCAAAAGAAAUAGUCUUGCGCUCAACCAGAAAGUCUGUAAUCAUUUUAAGGGUA

Variants of: B1
Experiment: self-cleavage, relative activity (ratio to wild type); higher = more cleavage; in vitro, sequencing; the parent is a self-cleaving ribozyme
A94U A135U showed a self-cleavage of 1.75.
In the case of U49C A68C, the self-cleavage is reported as 1.29.
Variant U120C A135C has a self-cleavage of 1.51.
In the case of U2C U87C, the self-cleavage is reported as 0.43.
Work on A47G U87C yielded a self-cleavage of 0.42.
With C77U G79U the self-cleavage was 0.13.
Variant U2C U131C has a self-cleavage of 1.08.
In the case of U37C U70C, the self-cleavage is reported as 0.2.
C81U A111U showed a self-cleavage of 0.05.
Variant U9A A33G has a self-cleavage of 0.9.
C61U A110G gave a self-cleavage of 0.11.
U26A A96G showed a self-cleavage of 1.39.
Work on A18G A51U yielded a self-cleavage of 1.15.
Variant A90G A96U has a self-cleavage of 1.79.
Work on U43A U87A yielded a self-cleavage of 1.94.
With A114G A135G the self-cleavage was 0.93.
A11U A91G showed a self-cleavage of 0.78.
For U87C A126G, the self-cleavage was 0.82.
Variant A98U A110G has a self-cleavage of 0.17.
A52U A91G showed a self-cleavage of 1.13.
With U9C A78C the self-cleavage was 0.38.
Work on A95U U103A yielded a self-cleavage of 0.6.
In the case of C76A A111U, the self-cleavage is reported as 0.03.
Variant U12C U37G has a self-cleavage of 1.92.
In the case of U19A C77U, the self-cleavage is reported as 1.25.
U9A A23U showed a self-cleavage of 1.59.
Variant G29U U102A has a self-cleavage of 1.
A89G showed a self-cleavage of 1.11.
For A23G U120A, the self-cleavage was 0.47.
U26C A27U gave a self-cleavage of 1.2.
Variant A4U G106A has a self-cleavage of 0.14.
Variant A68G C71A has a self-cleavage of 0.6.
In the case of U9C G80A, the self-cleavage is reported as 0.34.
In the case of G50A G104A, the self-cleavage is reported as 0.1.
Work on A23G U97C yielded a self-cleavage of 0.8.
For A78G A129U, the self-cleavage was 0.25.
Work on A27G A96U yielded a self-cleavage of 1.83.
With A51U G83A the self-cleavage was 2.1.
For A126G A135C, the self-cleavage was 0.84.
Variant A56G A63U has a self-cleavage of 1.68.
A23G A111G gave a self-cleavage of 0.05.
In the case of A22G C32U, the self-cleavage is reported as 0.91.
In the case of A62U A63U, the self-cleavage is reported as 1.75.
Work on A33G A111G yielded a self-cleavage of 0.02.
For A98U A118U, the self-cleavage was 1.62.
Work on A66G A129U yielded a self-cleavage of 1.47.
A30U showed a self-cleavage of 1.24.
A33G C113U gave a self-cleavage of 0.02.
In the case of A5G U9C, the self-cleavage is reported as 0.82.
U39C U43A showed a self-cleavage of 1.92.
Variant U97A A118G has a self-cleavage of 1.01.
G21A A69U gave a self-cleavage of 1.48.
With A69U A117G the self-cleavage was 1.48.
Variant U120A U132C has a self-cleavage of 1.37.
Variant A13G G41A has a self-cleavage of 0.97.
With A63U U131A the self-cleavage was 2.65.
U38C G99C gave a self-cleavage of 0.34.
Work on A63G A118U yielded a self-cleavage of 0.84.
Variant A11U A60G has a self-cleavage of 1.16.
Work on U49G A69G yielded a self-cleavage of 0.88.
In the case of U39C C61U, the self-cleavage is reported as 2.41.
A56U gave a self-cleavage of 1.54.
C45A U131A gave a self-cleavage of 1.29.
With A91G A110U the self-cleavage was 0.36.
Variant A30U A110G has a self-cleavage of 0.1.
In the case of U97A U132C, the self-cleavage is reported as 0.95.
A13C A95G showed a self-cleavage of 1.32.
With A24C A55G the self-cleavage was 1.52.
A11U A114G showed a self-cleavage of 0.61.
For G93A A135G, the self-cleavage was 2.27.
In the case of U49C A134U, the self-cleavage is reported as 1.2.
In the case of A60G C121U, the self-cleavage is reported as 1.48.
With U19A C109U the self-cleavage was 0.16.
For U122A A135G, the self-cleavage was 2.11.
Variant A118G A125U has a self-cleavage of 1.22.
Variant A92U G104A has a self-cleavage of 0.01.
Variant G50A U133C has a self-cleavage of 1.88.
G65A U108G gave a self-cleavage of 0.01.
With A22C A96G the self-cleavage was 2.53.
In the case of U49A G74A, the self-cleavage is reported as 0.24.
For U102C C109A, the self-cleavage was 0.3.
A64G C112U gave a self-cleavage of 0.01.
U19C G137A gave a self-cleavage of 0.95.
A5G A24U gave a self-cleavage of 0.83.
Variant A13G A68G has a self-cleavage of 0.65.
Work on U12C A36G yielded a self-cleavage of 1.44.
With U43C A59U the self-cleavage was 1.48.
With A64G A78U the self-cleavage was 0.4.
With A96G A111C the self-cleavage was 0.01.
For A62C U72C, the self-cleavage was 0.26.
In the case of A95G G136U, the self-cleavage is reported as 2.65.
For A30U A129G, the self-cleavage was 1.24.
U9C A82U showed a self-cleavage of 0.35.
With A89U U139A the self-cleavage was 1.49.
G31U A111U showed a self-cleavage of 0.15.
Work on U38A G83U yielded a self-cleavage of 0.84.
Variant A18U A94U has a self-cleavage of 1.11.
In the case of G8A A60G, the self-cleavage is reported as 1.53.
For A66G A116U, the self-cleavage was 0.7.
For A56G A86U, the self-cleavage was 1.67.
U9C A129C gave a self-cleavage of 0.68.
For A86G U103C, the self-cleavage was 0.45.
For A64G U120C, the self-cleavage was 1.13.
G106A A135G showed a self-cleavage of 0.02.
With A47G A116G the self-cleavage was 0.35.
U70A A110U gave a self-cleavage of 0.18.
A18G A60G showed a self-cleavage of 0.97.
In the case of A30U G115A, the self-cleavage is reported as 0.22.
Variant U9C A18C has a self-cleavage of 0.9.
G28A U130C showed a self-cleavage of 1.2.
Work on U9A A11G yielded a self-cleavage of 0.92.
U37C U100A showed a self-cleavage of 0.52.
G106A U132C gave a self-cleavage of 0.01.
A89G U120C gave a self-cleavage of 0.65.
With A51G U131C the self-cleavage was 1.25.
Variant A63U A96U has a self-cleavage of 2.14.
A60U A68G showed a self-cleavage of 1.79.
For A18G A116U, the self-cleavage was 0.75.
C32A A110U showed a self-cleavage of 2.04.
In the case of A56C A118G, the self-cleavage is reported as 0.63.
Variant A51G U103C has a self-cleavage of 1.09.
U43G U49C gave a self-cleavage of 2.01.
For G48C, the self-cleavage was 1.46.
With U49A A95G the self-cleavage was 1.76.
Variant U3C has a self-cleavage of 1.1.
A69G A126U gave a self-cleavage of 1.33.
Work on C32U yielded a self-cleavage of 1.28.
A23G A125G gave a self-cleavage of 0.4.
In the case of A18U U127A, the self-cleavage is reported as 2.41.
For A52G U133A, the self-cleavage was 2.06.
U87C A118U gave a self-cleavage of 0.9.
Variant U19A A114G has a self-cleavage of 0.55.
Variant A27G U87A has a self-cleavage of 1.39.
For A94G C107G, the self-cleavage was 0.01.
With U9A A134G the self-cleavage was 1.66.
In the case of A64U A69G, the self-cleavage is reported as 1.86.
Work on A51G A117G yielded a self-cleavage of 2.07.
Variant A52G U120A has a self-cleavage of 2.19.
With U19C A30G the self-cleavage was 0.94.
For A11G U38C, the self-cleavage was 0.65.
In the case of A5G U70C, the self-cleavage is reported as 0.82.
A51G A55C gave a self-cleavage of 0.42.
In the case of U38G A62U, the self-cleavage is reported as 1.41.
Work on U38A A117G yielded a self-cleavage of 2.22.
U57C A62G gave a self-cleavage of 0.7.
C85U U120G gave a self-cleavage of 0.64.
For A52G U97C, the self-cleavage was 1.07.
In the case of A94G U127C, the self-cleavage is reported as 1.04.
With A18U A47U the self-cleavage was 0.78.
A62G G84A gave a self-cleavage of 1.73.
In the case of U19C A98G, the self-cleavage is reported as 0.25.
With A30G A95U the self-cleavage was 1.42.
In the case of A98U U100C, the self-cleavage is reported as 2.47.
With C40U A59G the self-cleavage was 2.06.
For A90U A117G, the self-cleavage was 1.99.
With A62G C81U the self-cleavage was 0.26.
Variant A86G A140U has a self-cleavage of 1.3.
A86G A140G gave a self-cleavage of 0.77.
With C42A A69G the self-cleavage was 1.88.
For U26C A63G, the self-cleavage was 1.48.
Variant U43A U139C has a self-cleavage of 2.42.
A18G U19G showed a self-cleavage of 0.71.
Work on G8A U9C yielded a self-cleavage of 1.16.
For A66G A111G, the self-cleavage was 0.02.
G73A U120C gave a self-cleavage of 0.07.
Work on U72C U102A yielded a self-cleavage of 0.07.
A62G U97C gave a self-cleavage of 1.34.
